Measurements published in patent US20110195067A1.

Molecular target: FcγRIII (CD16) (human) (UniProt P08637)
Assay: cell-based or functional assay

Chain of FcγRIII (CD16) (human) (P08637 17-254): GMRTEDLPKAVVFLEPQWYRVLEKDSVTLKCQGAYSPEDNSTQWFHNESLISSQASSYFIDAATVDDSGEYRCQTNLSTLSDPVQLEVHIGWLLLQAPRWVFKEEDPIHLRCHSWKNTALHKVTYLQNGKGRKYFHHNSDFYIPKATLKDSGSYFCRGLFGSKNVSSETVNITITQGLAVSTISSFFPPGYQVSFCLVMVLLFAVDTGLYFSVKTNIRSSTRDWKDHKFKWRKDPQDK

IFN-γ secretion from PBMC, immobilized 3G8 (10 µg/ml) + IL-2 [ng/mL] | TNF-α secretion from PBMC, immobilized 3G8 (10 µg/ml) + IL-2 [ng/mL] | proliferative response of PBMC ([methyl-3H] thymidine), IL-2 and immobilized anti-CD16 mAb [CPM] | proliferative response of PBMC ([methyl-3H] thymidine), immobilized anti-CD16 mAb alone [CPM] | IFN-γ secretion from PBMC, aggregated IgG (40 µg/ml) + IL-2 [ng/mL] | TNF-α secretion from PBMC, aggregated IgG (40 µg/ml) + IL-2 [ng/mL] | fold induction of PBMC proliferation over IL-2, 125 µg/mL of AIG [fold] | proliferative response of PBMC, 125 µg/mL of AIG and IL-2 [CPM] | Substance
9.85 | 3.32 | 15500 | 592 |  |  |  |  | anti-CD16 mAb 3G8 (Caltag Laboratories) (antibody)
 |  |  |  | 13 | 2.46 | 16 | 17400 | heat aggregated IgG
